In article PMC3677378 one finds stoichiometry N (RF1 per S1 (band intensity)) data, which are given here for one substance.

Experiment [1] has as its target E. coli ribosomal post-peptide-release complex (RC; 70S, tRNA^fMet and [Met, stop]-mRNA) (E. coli) (UniProt P0AG67). In words: co-sedimentation; as a1 but with extra GDP titrated in, up to 200 μM extra GDP; ultracentrifugation on sucrose cushion, SDS-PAGE.
Experiment [2] has the same target. In words: co-sedimentation; RC or naked 70S (ribosomes 0.5 µM) with RF1 (2 µM) and RF3 (6 µM), 1xHEPES-polymix buffer, 37°C 10 min, no extra added GDP; ultracentrifugation on 30% sucrose cushion, SDS-PAGE, band intensities compared with ribosomal protein S1.

In the case of “release factor 1 (RF1), wild type (from UniProt P0A7I0 1-360) (natural protein)”, the stoichiometry N (RF1 per S1 (band intensity)) in experiment [1] and in experiment [2] was 1 in each case.
